Laboratory results taken from US6699677B1, “Tethered ligands and methods of use” (ChemoCentryx, Inc., priority 1999, dated 2004).

T1: CCR10 (Homo sapiens, UniProt Q9NPB9)
T1 construct: Full length CCR10 expression constructs were made in pIRESpuro expression vector; expressed in transfected cells; HEK293-CCR10)
T1 sequence (Q9NPB9 1-350): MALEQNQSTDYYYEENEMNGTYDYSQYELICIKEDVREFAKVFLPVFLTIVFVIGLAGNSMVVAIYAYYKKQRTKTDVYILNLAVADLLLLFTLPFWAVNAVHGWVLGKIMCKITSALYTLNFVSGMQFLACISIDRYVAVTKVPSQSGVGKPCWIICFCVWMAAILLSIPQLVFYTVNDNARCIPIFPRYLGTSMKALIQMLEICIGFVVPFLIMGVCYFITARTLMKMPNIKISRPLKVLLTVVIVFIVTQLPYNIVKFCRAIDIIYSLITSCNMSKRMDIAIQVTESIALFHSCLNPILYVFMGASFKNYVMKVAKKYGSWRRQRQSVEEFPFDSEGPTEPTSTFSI

T2: CCR4 (Homo sapiens, UniProt P51679)
T2 sequence (P51679 1-360): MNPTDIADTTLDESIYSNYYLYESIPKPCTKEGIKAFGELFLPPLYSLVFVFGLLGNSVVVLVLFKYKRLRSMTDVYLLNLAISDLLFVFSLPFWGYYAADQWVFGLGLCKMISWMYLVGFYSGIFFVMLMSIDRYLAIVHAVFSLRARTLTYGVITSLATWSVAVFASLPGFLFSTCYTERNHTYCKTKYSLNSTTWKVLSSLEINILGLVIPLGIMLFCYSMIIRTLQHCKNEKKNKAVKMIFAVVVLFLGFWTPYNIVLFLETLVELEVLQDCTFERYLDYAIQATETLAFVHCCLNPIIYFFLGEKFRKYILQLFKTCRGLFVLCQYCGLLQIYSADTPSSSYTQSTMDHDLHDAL

B1: ELC-SK: tethered ligand fusion protein: ELC chemokine domain, human fractalkine mucin stalk, myc/poly-histidine immobilization domain (protein)
chain: GTNDAEDCCLSVTQKPIPGYIVRNFHYLLIKDGCRVPAVVFTTLRGRQLCAPPDQPWVERIIQRLQRTSAKMKRRSSEFGGTFEKQIGEVKPRTTPAAGGMDESVVLEPEATGESSSLEPTPSSQEAQRALGTSPELPTGVTGSSGTRLPPTPKAQDGGPVGTELFRVPPVSTAATWQSSAPHQPGPSLWAEAKTSEAPSTQDPSTQASTASSPAPEENAPSEGQRVWGQGQSPRPENSLEREEMGPVPAHTDAFQDWGPGSMAHVSVVPVSSEGTPSREPVASGSWTPKAEEPIHATMDPQRLGVLITPVPDAQA
modifications: left off: small tags and cut ends
B2: vMIPII: viral chemokine (protein)
chain: GDTLGASWHRPDKCCLGYQKRPLPQVLLSSWYPTSQLCSKPGVIFLTKRGRQVCADKSKDWVKKLMQQLPVTAR
B3: MDC-FRAC: a stalkokine with a fractalkine stalk and an MDC ligand domain (protein)
chain: GPYGANMEDSVCCRDYVRYRLPLRVVKHFYWTSDSCPRPGVVLLTFRDKEICADPRVPWVKMILNKLSQEFGGTFEKQIGEVKPRTTPAAGGMDESVVLEPEATGESSSLEPTPSSQEAQRALGTSPELPTGVTGSSGTRLPPTPKAQDGGPVGTELFRVPPVSTAATWQSSAPHQPGPSLWAEAKTSEAPSTQDPSTQASTASSPAPEENAPSEGQRVWGQGQSPRPENSLEREEMGPVPAHTDAFQDWGPGSMAHVSVVPVSSEGTPSREPVASGSWTPKAEEPIHATMDPQRLGVLITPVPDAQA
modifications: left off: small tags and cut ends
notes: a stalkokine with a fractalkine stalk and an MDC ligand domain
B4: TARC-FRAC: a stalkokine with a fractalkine stalk and an TARC ligand domain (protein)
chain: ARGTNVGRECCLEYFKGAIPLRKLKTWYQTSEDCSRDAIVFVTVQGRAICSDPNNKRVKNAVKYLQSLERSEFGGTFEKQIGEVKPRTTPAAGGMDESVVLEPEATGESSSLEPTPSSQEAQRALGTSPELPTGVTGSSGTRLPPTPKAQDGGPVGTELFRVPPVSTAATWQSSAPHQPGPSLWAEAKTSEAPSTQDPSTQASTASSPAPEENAPSEGQRVWGQGQSPRPENSLEREEMGPVPAHTDAFQDWGPGSMAHVSVVPVSSEGTPSREPVASGSWTPKAEEPIHATMDPQRLGVLITPVPDAQA
modifications: left off: small tags and cut ends
notes: a stalkokine with a fractalkine stalk and an TARC ligand domain
B5: MDC: recombinant human chemokine, natural ligand for CCR4 (protein)
chain: GPYGANMEDSVCCRDYVRYRLPLRVVKHFYWTSDSCPRPGVVLLTFRDKEICADPRVPWVKMILNKLSQ
B6: FK: fractalkine, natural membrane protein with a chemokine domain tethered on a long mucin-like stalk (protein)
chain: QHHGVTKCNITCSKMTSKIPVALLIHYQQNQASCGKRAIILETRQHRLFCADPKEQWVKDAMQHLDRQAAALTRNGGTFEKQIGEVKPRTTPAAGGMDESVVLEPEATGESSSLEPTPSSQEAQRALGTSPELPTGVTGSSGTRLPPTPKAQDGGPVGTELFRVPPVSTAATWQSSAPHQPGPSLWAEAKTSEAPSTQDPSTQASTASSPAPEENAPSEGQRVWGQGQSPRPENSLEREEMGPVPAHTDAFQDWGPGSMAHVSVVPVSSEGTPSREPVASGSWTPKAEEPIHATMDPQRLGVLITPVPDAQA

Legend:
CCR10 [1] = molecular target: T1, CCR10; assay: Adhesion of HEK293-CCR10 cells to immobilized stalkokines, with or without soluble chemokine competitors; format: binding; conditions: stalkokine immobilized via anti-His anchoring antibody, 500,000 cells, 1.5 hrs at RT
Protocol: To determine ligand binding to CCR10, HEK293-CCR10 cells were used to interrogate chemokine “stalkokines” (SK), i.e., molecules in which discrete chemokine domains were engineered to be tethered to the end of an extended stalk structure. Stalkokines were interrogated using 8-well chamber slides coated first with anti-His anchoring antibody (10 ug/ml in PBS overnight at RT), which were washed and ‘blocked’ (2% FBS/0.5% BSA in PBS); treated with 250 ul of HEK293 cell stalkokine supernatants (1 hr at 37C), and incubated with 500,000 HEK293-CCR10 transfectants (1.5 hrs at RT). Inhibition of adhesion by competition with soluble chemokines was done by incubating cells with 5-10 ug/ml of recombinant chemokines. In all cases, nonadherent cells were removed by washing in PBS; remaining adherent cells were fixed with 1% glutaraldehyde, photoimaged and counted. As a primary screen, this adhesion would reveal putative receptor-ligand interactions.

CXCR4 = molecular target: T3, CXCR4 (Homo sapiens, UniProt P61073); assay: Binding of CXCR4-NSO cells to immobilized stalkokines
T3 construct: host or cells: mouse myeloma NSO
T3 sequence (P61073 whole entry): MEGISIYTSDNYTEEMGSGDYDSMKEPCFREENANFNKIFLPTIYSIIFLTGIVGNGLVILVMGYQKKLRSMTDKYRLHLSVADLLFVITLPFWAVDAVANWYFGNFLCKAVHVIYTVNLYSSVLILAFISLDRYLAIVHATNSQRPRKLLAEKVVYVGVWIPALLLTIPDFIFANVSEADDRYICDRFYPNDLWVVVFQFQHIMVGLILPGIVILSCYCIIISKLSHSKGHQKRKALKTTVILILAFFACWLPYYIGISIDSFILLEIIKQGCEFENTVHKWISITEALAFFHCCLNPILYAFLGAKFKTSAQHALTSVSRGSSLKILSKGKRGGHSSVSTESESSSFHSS
Protocol: In one set of experiments, five 8 well chamber slides (Lab-Tek II, Nalge Nunc International, Rochester, N.Y.), 250 ul of 10 ug/ml anti-his antibody (R&D Systems, Minneapolis, Minn.) in PBS was added to each well and incubated at room temperature overnight (typically 16 hours). Following, the liquid in each well was aspirated and washed once for approximately 5 minutes with 500 ul of PBS. The wells were then “blocked” (blocked for any additional protein binding sites) with the addition of 250 ul of blocking solution (2% fetal bovine serum, 0.5% BSA in PBS) and incubation for 1 hour at room temp (e.g., 20° C.). The liquid in each well was aspirated and 250 ul of supernatant containing the chemokine-stalk-immobilization domain fusion proteins (SDF1a-FRAC, finetaxin-FRAC, CCL27-FRAC, 1309-FRAC, MIP3a-FRAC, ELC-FRAC, SLC-FRAC, MDC-FRAC, TARC-FRAC, or BRAK-FRAC) or the control supernatant was added to two wells. Each slide contained two wells with control supernatant (from mock-transfected cells) and two wells with the positive control SDF1a (which binds the ubiquitous chemokine receptor CXCR4). The four other wells were for experimental samples. The supernatants were incubated for one hour at room temperature (typically 20° C.), then incubated for an additional hour at 37° C. […] The slide was then ready for addition of cells for assay. […]

CCR10 [2] = molecular target: T1, CCR10; assay: Spectrum of ligands that bind to CCR10; format: binding
Text: Furthermore ELC-SK mediated adhesion was abolished in the presence of soluble native ELC as a competitor (FIG. 3A, top row). […] Moreover, radiolabeled ELC was used in a traditional homologous competition assay in the presence of increasing concentrations of unlabeled ELC. […] Taken together, the stalkokine-based adhesion and radiolabeled ligand binding/homologous competition assays indicate that CCR10 is a new chemokine receptor that bound a novel compliment of chemokines.

CCR4 [3] = molecular target: T2, CCR4; assay: Calcium mobilization in INDO-1AM loaded CEM cells expressing CCR4; format: cell-based; parameters: endogenous in cells; host or cells: CEM cells; conditions: fusion protein supernatant added at 80 sec
Protocol: Briefly, CEM cells that express CCR4 were placed in a fluorimeter and monitored over time for changes in fluorescence. […] TARC-Fractalkine or MDC-Fractalkine (fusion protein supernatants), or control supernatants, were added at the following times: experiment 1, control supernatant added at 50 sec, TARK-FRAC at 80 sec; experiment 2, control supernatant at 50 sec and MDC-FRAC at 80 sec.

CCR4 [4] = molecular target: T2, CCR4; assay: Binding of CCR4-NSO cells to immobilized stalkokines and competition by soluble chemokine; parameters: host or cells: mouse myeloma NSO
Protocol: Following, the liquid in each well was aspirated and washed once for approximately 5 minutes with 500 ul of PBS. The wells were then “blocked” (blocked for any additional protein binding sites) with the addition of 250 ul of blocking solution (2% fetal bovine serum, 0.5% BSA in PBS) and incubation for 1 hour at room temp (e.g., 20° C.). […] Each slide contained two wells with control supernatant (from mock-transfected cells) and two wells with the positive control SDF1a (which binds the ubiquitous chemokine receptor CXCR4). The four other wells were for experimental samples. The supernatants were incubated for one hour at room temperature (typically 20° C.), then incubated for an additional hour at 37° C. The supernatants were aspirated off, and each well was washed once for 5 minutes with 500 ul of PBS. The slide was then ready for addition of cells for assay.
Several types of cells were used in binding experiments to stalkokines of the invention, including transfected mouse myeloma NSO cells containing a mammalian expression vector driving expression of the receptor of interest, e.g., CCR1, CCR4, CCR6, CCR7, CCR8, CXCR4, CMV US28 (gift of R&D Systems (Minneapolis, Minn.)).
In an experiment, CCR4-NSO cells were used to test binding competition. Harvested CCR4 NSO cells were resuspended at 2×10^6 cells per ml in PBS. […] 250 ul of cells that were not pre-treated with soluble chemokine were added to additional wells. The slides were incubated for 1.5 hours at room temp, then the supernatant gently aspirated. The chamber portion of the slide was removed (using the apparatus provided by the supplier) and the slide was washed by gentle immersion into a petri dish containing PBS to a depth of 1cm. This was repeated 3 times in total, and the slide was immersed in a 1% glutaraldehyde solution (in PBS) for 5 minutes at room temperature. The cells were inspected and enumerated visually by microscopy.

CCR4 [5] = molecular target: T2, CCR4; assay: Displacement of radiolabeled MDC or TARC tracer from CEM cells expressing CCR4; format: binding; parameters: endogenous in cells; host or cells: CEM cells; conditions: supernatants with soluble stalkokine, compared with control supernatant
Protocol: Briefly, CEM cells we added to radiolabeled chemokine “tracer” (MDC or TARC) in the presence of competitor molecules such as supernatants expressing the soluble MDC-FRAC (a stalkokine with a fractalkine stalk and an MDC ligand domain) or TARC-FRAC (a stalkokine with a fractalkine stalk and an TARC ligand domain). The cells and tracer were incubated and harvested by filtration, capturing the bound tracer. The material was then counted. “Total” is the amount of tracer bound with no competition.

Row | Molecule | Binding to Stalkokine form (CXCR4) | Calcium influx / calcium signaling (CCR4 [3]) | Binding to Stalkokine form (CCR4 [4]) | Inhibition of binding of MDC or TARC tracer to CEM cells (CCR4 [5]) | also measured
1 | B1 |  |  |  |  | Adhesion of HEK293-CCR10 cells to immobilized stalkokine (CCR10 [1]): adhered very well; Adhesion of HEK293-CCR10 cells to immobilized stalkokine (CCR10 [1]; listed as ELC-stalkokine (SK)): strong adhesion
2 | B2 | yes |  |  |  | Affinity of binding to CCR10 (CCR10 [2]): lower affinity
3 | B3 |  | modest influx | bound | significant further decrease | Calcium influx / calcium signaling (CCR4 [3]; listed as MDC-Stalkokine): induction of calcium signaling
4 | B4 |  | modest influx | bound | significant further decrease | Calcium influx / calcium signaling (CCR4 [3]; listed as TARC-Stalkokine): induction of calcium signaling
5 | B5 |  |  | yes, yes | maximal level of competition | 
6 | B6 | yes |  |  |  | 
